Numbering of substitutions follows the chain as printed.

First the molecules themselves.
T1: B7H3 on the recombinant cell line CT26-B7H3 (UniProt Q5ZPR3 29-534, limits assumed)
T1 construct: whole, on cells
T1 sequence (looked up): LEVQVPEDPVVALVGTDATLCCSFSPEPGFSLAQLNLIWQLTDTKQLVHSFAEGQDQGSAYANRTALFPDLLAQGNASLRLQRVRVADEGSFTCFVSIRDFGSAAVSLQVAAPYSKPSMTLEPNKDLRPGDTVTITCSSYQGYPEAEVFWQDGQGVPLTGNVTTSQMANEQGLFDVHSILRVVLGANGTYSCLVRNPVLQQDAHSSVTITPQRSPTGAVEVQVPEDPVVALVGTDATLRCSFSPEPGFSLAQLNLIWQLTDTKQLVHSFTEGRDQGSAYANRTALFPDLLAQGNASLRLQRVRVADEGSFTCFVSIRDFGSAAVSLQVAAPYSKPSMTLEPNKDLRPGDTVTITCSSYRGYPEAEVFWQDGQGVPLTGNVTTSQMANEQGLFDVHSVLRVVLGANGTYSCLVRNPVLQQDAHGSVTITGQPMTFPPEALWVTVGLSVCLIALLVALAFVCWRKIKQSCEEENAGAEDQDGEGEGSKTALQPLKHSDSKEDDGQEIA

B1: F1 (antibody)
heavy: not shown
light: DTVVTQEPSFSVSPGGTVTLTCGLSSGSVSTSHYPSWYQQTPGQAPRMLIYNTNTRSSGVPDRFSGSILGNKAALTITGAQADDESDYYCAIHVDRDIWVFGGGTKLTVLGILQPDPPANITVTAVARNPRWLSVTWQDPHSWNSSFYRLRFELRYRAERSKTFTTWMVKDLQHHCVIHDAWSGLRHVVQLRAQEEFGQGEWSEWSPEAMGTPW
B2: F2 (antibody)
heavy: not shown
light: DTVVTQEPSFSVSPGGTVTLTCGLSSGSVSTSHYPSWYQQTPGQAPRMLIYNTNTRSSGVPDRFSGSILGNKAALTITGAQADDESDYYCAIHVDRDIWVFGGGTKLTVLFDPVYKVKPNPPHNLSVINSEELSSILKLTWTNPSIKSVIILKYNIQYRTKDASTWSQIPPEDTASTRSSFTVQDLKPFTEYVFRIRCMKEDGKGYWSDWSEEASGIT
B3: V0 (antibody, human IgG1, lambda)
heavy: not shown
light: QIVLTQSPAILSASPGEKVTMTCRASSSVSYMNWYQQKPGSSPKPWIYATSNLASGVPARFSVSVSGTSHSLTISRVEAEDAATYYCQQWSSNPLTFGAGTKLELKGQPKAAPSVTLFPPSSEELQANKATLVCLISDFYPGAVTVAWKADSSPVKAGVETTTPSKQSNNKYAASSYLSLTPEQWKSHRSYSCQVTHEGSTVEKTVAPTECS
B4: V3 (antibody)
heavy: not shown
light: QIVLTQSPAILSASPGEKVTMTCRASSSVSYMNWYQQKPGSSPKPWIYATSNLASGVPARFSVSVSGTSHSLTISRVEAEDAATYYCQQWSSNPLTFGAGTKLELKSGAPRFLTRPKAFVVSVGKDATLSCQIVGNPTPQVSWEKDQQPVAAGARFRLAQDGDLYRLTILDLALGDSGQYVCRARNAIGEAFAAVGLQVDAEA
B5: V1 (antibody)
heavy: not shown
light: QIVLTQSPAILSASPGEKVTMTCRASSSVSYMNWYQQKPGSSPKPWIYATSNLASGVPARFSVSVSGTSHSLTISRVEAEDAATYYCQQWSSNPLTFGAGTKLELKGILQPDPPANITVTAVARNPRWLSVTWQDPHSWNSSFYRLRFELRYRAERSKTFTTWMVKDLQHHCVIHDAWSGLRHVVQLRAQEEFGQGEWSEWSPEAMGTPW
B6: V5 (antibody)
heavy: not shown
light: QIVLTQSPAILSASPGEKVTMTCRASSSVSYMNWYQQKPGSSPKPWIYATSNLASGVPARFSVSVSGTSHSLTISRVEAEDAATYYCQQWSSNPLTFGAGTKLELKGIPPKIEALPSDISIDEGKVLTVACAFTGEPTPEVTWSCGGRKIHSQEQGRFHIENTDDLTTLIIMDVQKQDGGLYTLSLGNEFGSDSATVNIHIRSI
B7: V6 (antibody)
heavy: not shown
light: B6 light
B8: S0 (antibody, human IgG1, kappa)
heavy: not shown
light: DIQMTQSPASLSASVGDRVTITCRASENIFSYLAWYQQKPGKSPKLLVYNTRTLAEGVPSRFSGSGSGTDFSLTISSLQPEDFATYYCQHHYGTPFTFGSGTKLEIKRTVAAPSVFIFPPSDEQLKSGTASVVCLLNNFYPREAKVQWKVDNALQSGNSQESVTEQDSKDSTYSLSSTLTLSKADYEKHKVYACEVTHQGLSSPVTKSFNRGEC
notes: also called SO
B9: F3 (antibody)
heavy: not shown
light: DTVVTQEPSFSVSPGGTVTLTCGLSSGSVSTSHYPSWYQQTPGQAPRMLIYNTNTRSSGVPDRFSGSILGNKAALTITGAQADDESDYYCAIHVDRDIWVFGGGTKLTVLSGAPRFLTRPKAFVVSVGKDATLSCQIVGNPTPQVSWEKDQQPVAAGARFRLAQDGDLYRLTILDLALGDSGQYVCRARNAIGEAFAAVGLQVDAEA
B10: F4 (antibody)
heavy: not shown
light: DTVVTQEPSFSVSPGGTVTLTCGLSSGSVSTSHYPSWYQQTPGQAPRMLIYNTNTRSSGVPDRFSGSILGNKAALTITGAQADDESDYYCAIHVDRDIWVFGGGTKLTVLQGSPPCFLRFPRPVRVVSGAEAELKCVVLGEPPPVVVWEKGGQQLAASERLSFPADGAEHGLLLTAALPTDAGVYVCRARNAAGEAYAAAAVTVLEPP
B11: V4 (antibody)
heavy: not shown
light: QIVLTQSPAILSASPGEKVTMTCRASSSVSYMNWYQQKPGSSPKPWIYATSNLASGVPARFSVSVSGTSHSLTISRVEAEDAATYYCQQWSSNPLTFGAGTKLELKQGSPPCFLRFPRPVRVVSGAEAELKCVVLGEPPPVVVWEKGGQQLAASERLSFPADGAEHGLLLTAALPTDAGVYVCRARNAAGEAYAAAAVTVLEPP
B12: S3 (antibody)
heavy: not shown
light: DIQMTQSPASLSASVGDRVTITCRASENIFSYLAWYQQKPGKSPKLLVYNTRTLAEGVPSRFSGSGSGTDFSLTISSLQPEDFATYYCQHHYGTPFTFGSGTKLEIKQGSPPCFLRFPRPVRVVSGAEAELKCVVLGEPPPVVVWEKGGQQLAASERLSFPADGAEHGLLLTAALPTDAGVYVCRARNAAGEAYAAAAVTVLEPP
B13: S4 (antibody)
heavy: not shown
light: DIQMTQSPASLSASVGDRVTITCRASENIFSYLAWYQQKPGKSPKLLVYNTRTLAEGVPSRFSGSGSGTDFSLTISSLQPEDFATYYCQHHYGTPFTFGSGTKLEIKGIPPKIEALPSDISIDEGKVLTVACAFTGEPTPEVTWSCGGRKIHSQEQGRFHIENTDDLTTLIIMDVQKQDGGLYTLSLGNEFGSDSATVNIHIRSI
B14: PL-17 (bispecific antibody, human IgG1, kappa, L234A L235A)
heavy 1: not shown
light 1: DIVLTQSPASLAVSPGQRATITCRASESVSIHGTHLMHWYQQKPGQPPKLLIYAASKLESGVPARFSGSGSGTDFTLTINPVEAEDTANYYCQQSFEDPLTFGQGTKLEIKRTVASGIPPKIECLPIDISIDEGKVLTVASAFTGEPTPEVTWSTGGRKIHSQEQGRFHIENTDDSTTLTIKDVQKQDGGLYTLTLRNEFGSDSATVNIHIRSI
heavy 2: not shown
light 2: not shown
B15: PL-18 (bispecific antibody, human IgG1, kappa, L234A L235A)
heavy 1: not shown
light 1: B14 light 1 with V136C
heavy 2: not shown
light 2: not shown
B16: PL-19 (bispecific antibody, human IgG1, kappa, L234A L235A)
heavy 1: not shown
light 1: B14 light 1 with A142C
heavy 2: not shown
light 2: not shown
B17: F8 (antibody)
heavy: not shown
light: B9 light with C135S, C186S, A198C
B18: F10 (antibody)
heavy: not shown
light: B9 light with R119C, C135S, C186S
B19: F5 (antibody)
heavy: not shown
light: B9 light with A198C
B20: F7 (antibody)
heavy: not shown
light: B9 light with R119C
B21: F6 (antibody)
heavy: not shown
light: B9 light with A113C
B22: F9 (antibody)
heavy: not shown
light: B9 light with A113C, C135S, C186S
B23: F11 (antibody)
heavy: not shown
light: B10 light with C116E, V184C
B24: F14 (antibody)
heavy: not shown
light: B10 light with C116E, C136S, V184C, C187S
B25: F15 (antibody)
heavy: not shown
light: B10 light with C116E, C136S, C187S, G194C
B26: F12 (antibody)
heavy: not shown
light: B10 light with C116E, G194C
B27: F13 (antibody)
heavy: not shown
light: B10 light with C116E, A196C

T2 sequence (Q9NZQ7 19-239 limits assumed): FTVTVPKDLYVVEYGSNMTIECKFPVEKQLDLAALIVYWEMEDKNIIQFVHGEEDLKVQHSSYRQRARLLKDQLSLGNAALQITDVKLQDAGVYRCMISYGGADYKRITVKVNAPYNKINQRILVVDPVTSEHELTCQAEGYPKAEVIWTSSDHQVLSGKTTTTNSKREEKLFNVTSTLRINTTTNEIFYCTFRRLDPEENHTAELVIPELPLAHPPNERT

One assay concerns the target T1, B7H3 on the recombinant cell line …. Description: FACS, CT26-B7H3 cells. (In general: A flow cytometer gives signals particle by particle.)
For the molecule B1, the EC50 (usually the concentration needed to bring the measured effect to its halfway point) is 71.6 nM. B2: the EC50 amounted to 59.3 nM.

With B3, the EC50 is 1.8 nM.

As for B4, the EC50 came out at 3.6 nM.

Regarding B5, the EC50 amounted to 38.4 nM.

For the molecule B6, the EC50 turned out to be 3.2 nM. Same read-out and setting: next, B7: 4.7 nM; B8: 1.01 nM; B9: 2.83 nM. Still for that read-out and setting: to B10 belongs 2.17 nM; to B11, 2.9 nM.

B12: the EC50 came out at 3.5 nM.

For B13, the EC50 amounted to 1.96 nM.

Another assay concerns the target T2, hPDL1 antigen (human, UniProt Q9NZQ7 19-239, limits assumed).
T2 construct: bought
Description: ELISA.
Description: For an antibody targeting a soluble protein, the binding activity of the antibody against the soluble protein was detected by ELISA. […] After the blocking was completed, the blocking solution was discarded; and the plate was washed 3 times with a PBST buffer (pH 7.4, PBS containing 0.1% tween-20). 100 μL of the antibody solution diluted in a gradient was added to each well, and the mixture was incubated at 37° C. for 1 h. After the incubation was completed, the plate was washed 3 times with PBST. […] The plate was washed 3 times with PBST. […] The reaction was stopped by adding 50 μL of 1 M H₂SO₄ to each well. The absorbance values at 450 nm were read on a microplate reader, the binding curves of the antibodies to an antigen were fitted with software, and the EC₅₀ values were calculated.
In turn, B14 gave an EC50 of 1.4 nM.

The molecule B15 had an EC50 of 1.6 nM. Same read-out and setting: to B16 belongs 1.6 nM.

A further assay concerns the target T1, B7H3 on the recombinant cell line …. Nature of the assay: FACS, CT26-B7H3 cells. This is another data set of the same source.
Take B17: the EC50 turned out to be 3.14 nM. Same read-out and setting: next, B18: 3.94 nM. Same read-out and setting: to B19 belongs 1.21 nM; to B9, 2.64 nM. The same measure, in the same setting: to B20 belongs 3.38 nM; to B21, 2.71 nM; to B22, 3.52 nM. In the case of B23, the EC50 worked out at 6.15 nM. Same read-out and setting: to B24 belongs 5.15 nM; to B25, 4.44 nM; to B26, 8.19 nM. On the same count and under the same terms, to B10 belongs 3.01 nM; to B27, 6.08 nM.

Source of the values: US20240392020A1 (JIANGSU HENGRUI PHARMACEUTICALS, published 2024).
